# Measured values reported in US20070166299A1, “TREATMENT FOR EMBOLIC STROKE” (priority 2005, published 2007).
# Entries after “also recorded” stand apart in the source; their conditions may differ.
# B1: Tenecteplase: thrombolytic agent supplied by Genentech as a lyophilized cake, the formulation used clinically (protein, UniProt P00750 36-562, looked up, variant T103N N117Q K296A H297A R298A R299A)
# Tissue-type plasminogen …: SYQVICRDEKTQMIYQQHQSWLRPVLRSNRVEYCWCNSGRAQCHSVPVKSCSEPRCFNGGTCQQALYFSDFVCQCPEGFAGKCCEIDTRATCYEDQGISYRGNWSTAESGAECTNWQSSALAQKPYSGRRPDAIRLGLGNHNYCRNPDRDSKPWCYVFKAGKYSSEFCSTPACSEGNSDCYFGNGSAYRGTHSLTESGASCLPWNSMILIGKVYTAQNPSAQALGLGKHNYCRNPDGDAKPWCHVLKNRRLTWEYCDVPSCSTCGLRQYSQPQFRIKGGLFADIASHPWQAAIFAAAAASPGERFLCGGILISSCWILSAAHCFQERFPPHHLTVILGRTYRVVPGEEEQKFEVEKYIVHKEFDDDTYDNDIALLQLKSDSSRCAQESSVVRTVCLPPADLQLPDWTECELSGYGKHEALSPFYSERLKEAHVRLYPSSRCTSQHLLNRTVTDNMLCAGDTRSGGPQANLHDACQGDSGGPLVCLNDGRMTLVGIISWGLGCGQKDVPGVYTKVTNYLDWIRDNMRP
# Columns and labels:
# [1] = tested on: small clot embolic strokes in rabbits; conditions: previous studies; cited from earlier work
# [2] = tested on: small clot embolic strokes in rabbits; assay: rabbit small clot embolic stroke model (RSCEM), quantal analysis of behavior; type: in vivo
# From the text: The invention used a rabbit small clot embolic stroke model (RSCEM) that reproduces many facets of human AIS including a well-defined clinical endpoint. The RSCEM utilizes administration of a suspension of small blood clots to induce strokes, and behavioral deficits that can be measured quantitatively. Moreover, the RSCEM is useful to conduct studies testing the effects of single drugs or drug combinations such as a neuroprotective agent (e.g., NXY-059) plus a thrombolytic (Tenecteplase, Alteplase, Desmoteplase and the like). Since it is likely that a drug combination will be used for patient management it is important to determine whether there are any interactions (positive or negative) between the compounds when administered following embolic strokes.
# Methods: Male New Zealand white rabbits were anesthetized using halothane (5% induction, 2% maintenance by facemask), the bifurcation of the right carotid artery was exposed and the external carotid was ligated just distal to the bifurcation, where a catheter was inserted into the common carotid and secured with ligatures. The incision was closed around the catheter with the distal ends left accessible outside the neck; the catheter was filled with heparinized saline and plugged with an injection cap. Rabbits were allowed to recover from anesthesia for a minimum of 3 h until they awoke and behaved normally.
# For the RSCEM, microclots were prepared from blood drawn from a donor rabbit and allowed to clot at 37° C. All rabbits in the study received injections of the same sized microclots. For embolization, clot particles were rapidly injected through the carotid catheter and both the syringe and catheter were flushed with 5 ml of normal saline. […]
# Quantal Dose-Response Analysis: For the RSCEM, a quantal dose-response data analysis technique was used. […] The P50 values are then calculated. […] The data were analyzed using the t-test, which included the Bonferroni correction where appropriate. […]
molecule,measurement,setting,value
B1,therapeutic window,[1],3 h
same,P50,"[2]; Tenecteplase 0.9 mg/kg IV bolus, 1 hour following embolization",2.76 ± 0.37 mg
same,increase of P50 over control,"[2]; Tenecteplase 0.9 mg/kg, 1 hour following embolization",130%
same,P50 compared to control,"[2]; Tenecteplase 0.9 mg/kg, 6 hours following embolization","did not increase the P50 compared to control; also recorded: neither Tenecteplase, nor NXY-059, significantly (p>0.05) affect P50 values"
